# B1: Reduced GC1 (rGC1), recombinant human GC1 treated with 10 mM DTT (protein)
# chain 1: MFCTKLKDLKITGECPFSLLAPGQVPNESSEEAAGSSESCKATMPICQDIPEKNIQESLPQRKTSRSRVYLHTLAESICKLIFPEFERLNVALQRTLAKHKIKESRKSLEREDFEKTIAEQAVAAGVPVEVIKESLGEEVFKICYEEDENILGVVGGTLKDFLNSFSTLLKQSSHCQEAGKRGRLEDASILCLDKEDDFLHVYYFFPKRTTSLILPGIIKAAAHVLYETEVEVSLMPPCFHNDCSEFVNQPYLLYSVHMKSTKPSLSPSKPQSSLVIPTSLFCKTFPFHFMFDKDMTILQFGNGIRRLMNRRDFQGKPNFEEYFEILTPKINQTFSGIMTMLNMQFVVRVRRWDNSVKKSSRVMDLKGQMIYIVESSAILFLGSPCVDRLEDFTGRGLYLSDIPIHNALRDVVLIGEQARAQDGLKKRLGKLKATLEQAHQALEEEKKKTVDLLCSIFPCEVAQQLWQGQVVQAKKFSNVTMLFSDIVGFTAICSQCSPLQVITMLNALYTRFDQQCGELDVYKVETIGDAYCVAGGLHKESDTHAVQIALMAVKMMELSDEVMSPHGEPIKMRIGLHSGSVFAGVVGVKMPRYCLFGNNVTLANKFESCSVPRKINVSPTTYRLLKDCPGFVFTPRSREELPPNFPSEIPGICHFLDAYQQGTNSKPCFQKKDVEDGNANFLGKASGID
# chain 2: MYGFVNHALELLVIRNYGPEVWEDIKKEAQLDEEGQFLVRIIYDDSKTYDLVAAASKVLNLNAGEILQMFGKMFFVFCQESGYDTILRVLGSNVREFLQNLDALHDHLATIYPGMRAPSFRCTDAEKGKGLILHYYSEREGLQDIVIGIIKTVAQQIHGTEIDMKVIQQRNEECDHTQFLIEEKESKEEDFYEDLDRFEENGTQESRISPYTFCKAFPFHIIFDRDLVVTQCGNAIYRVLPQLQPGNCSLLSVFSLVRPHIDISFHGILSHINTVFVLRSKEGLLDVEKLECEDELTGTEISCLRLKGQMIYLPEADSILFLCSPSVMNLDDLTRRGLYLSDIPLHDATRDLVLLGEQFREEYKLTQELEILTDRLQLTLRALEDEKKKTDTLLYSVLPPSVANELRHKRPVPAKRYDNVTILFSGIVGFNAFCSKHASGEGAMKIVNLLNDLYTRFDTLTDSRKNPFVYKVETVGDKYMTVSGLPEPCIHHARSICHLALDMMEIAGQVQVDGESVQITIGIHTGEVVTGVIGQRMPRYCLFGNTVNLTSRTETTGEKGKINVSEYTYRCLMSPENSDPQFHLEHRGPVSMKGKKEPMQVWFLSRKNTGTEETKQDDD
# B2: Reduced Trx1 (rTrx1), recombinant human Trx1 treated with 10 mM DTT (protein)
# chain: MVKQIESKTAFQEALDAAGDKLVVVDFSATWCGPCKMIKPFFHSLSEKYSNVIFLEVDVDDCQDVASECEVKCMPTFQFFKKGQKVGEFSGANKEKLEATINELV
# B3: Thioredoxin 1 (Trx1) protein, purified (protein)
# chain: B2 chain
# What was measured:
# [1] = tested on: Jurkat T cells; assay: Biotin-avidin switch assays of S-nitrosation in Jurkat T cells ± etoposide; type: cell-based, human
# Experimental: Jurkat cells were cultured in a 6-well plate at the density of 0.25×10^6/ml in complete medium RPMI 1640 from Corning (10-040-CV) supplemented with 10% FBS and Pen-Strep and incubated at 37° C. with 5% CO2 for 24 h. The cells were collected by centrifuging at 1000 g for 5 min, washed twice with serum-free medium, and re-suspended with 2 ml serum-free medium prior to peptide treatment.
# Free thiols of proteins were blocked in lysis-blocking buffer containing 50 mM Tris, pH 7.5, 150 mM NaCl, 1% Triton X-100, 1 mM EDTA, 2% SDS, 0.1 mM neocuproine, 0.2 mM PSMF, and 40 mM N-ethylmaleimide (NEM) at 50° C. for 30 min in the dark. Excess NEM was removed using cold acetone precipitation. The protein pellets were generated by centrifugating at 14000 g for 10 min at 4° C. and washed 3 times using cold acetone. […]
# For biotin-avidin switch assays: After 16 h incubation, the cells were washed twice with cold PBS and lysed in lysis-blocking buffer containing 50 mM Tris, pH 7.5, 150 mM NaCl, 1% Triton X-100, 1 mM EDTA, 2% SDS, 0.1 mM neocuproine, and 40 mM NEM supplemented with PMSF and protease inhibitor cocktail. The protein concentration was measured using the Bradford method. 50 μg of each lysate was analyzed by Western blot as starting material (inputs) and 200 μg proteins of each sample were subjected to the biotin switch and avidin assays, as described elsewhere herein. […]
# [2] = tested on: caspase-3; assay: Caspase-3 activity assay in Jurkat T cells ± etoposide; type: cell-based, human; settings: etoposide 8 μM 16 h compared to samples not treated with ETO
# Experimental: The cells in suspension in 2 ml serum-free medium were treated with either 70% DMSO (20 μL, 0.7% final), scramble peptide, or inhibitory peptide at a final concentration of 10 μM and incubated at 37° C. for 1 h. After incubation, the cells were washed twice and incubated in complete medium at 37° C. for 8 h. The cells were then treated with (or without) etoposide (ETO) at 8 μM final at 37° C. for 16 h.
# For Caspase-3 activity assays: After 16 h incubation, the cells were washed twice with cold PBS and lysed in the supplier's 1× lysis buffer (at 10 μL per 10^6 cells). After 15 min incubation on ice, the lysates were centrifuged at 16,000 g for 15 min at 4° C. and the supernatant collected. Caspase-3 activity was measured following the supplier's instructions (CASP3C-1KT, Sigma) after 2 and 3 h incubation.
# Whether these observations correlated with an increased caspase-3 activity was next assessed with a colorimetric assay based on cleavage of the substrate […], under the same above conditions. […] It was concluded that disrupting the SNO-GC1→oTrx1→procaspase-3 transnitrosation cascade using a peptide inhibitory of the GC1/Trx1 interaction promotes Jurkat T-cells apoptosis.
# [3] = biological target: T1, Oxidized Trx1 (oTrx1), recombinant human Trx1 treated with 100 µM diamide, P10599
# T1 chain: B2 chain
# [4] = biological target: T2, Oxidized GC1 (oGC1), recombinant human GC1 treated with 100 µM diamide, Q02153
# T2 chain 1: B1 chain 1
# T2 chain 2: B1 chain 2
# [5] = biological target: T3, Purified recombinant human soluble guanylyl cyclase (GC1), Q02153
# T3 chain 1: B1 chain 1
# T3 chain 2: B1 chain 2
molecule,measurement,setting,value
COc1cc([C@@H]2c3cc4c(cc3[C@@H](O[C@@H]3O[C@@H]5CO[C@@H](C)O[C@H]5[C@H](O)[C@H]3O)[C@H]3COC(=O)[C@H]23)OCO4)cc(OC)c1O [Etoposide],global levels of S-nitrosation in Jurkat T cells,"[1]; peptide 10 μM 1 h, etoposide 8 μM 16 h (FIG. 8A left panel)",did not affect
same,SNO-procaspase-3 level in Jurkat T cells,"[1]; peptide 10 μM 1 h ± etoposide 8 μM 16 h, avidin purified, compared to DMSO and scramble peptide (FIG. 8A right panel)",slightly reduced
same,caspase-3 activity in Jurkat cells treated with ETO,[2],significant increase
B1,"conversion of oTrx1 dimers into monomers (non-reducing gel, Western blot)",[3],rGC1 converted most of oTrx1 dimer into Trx1 monomers
same,conversion of oTrx1 dimers into monomers in the presence of 125 µM scramble peptide,[3],the rGC1-dependent conversation of Trx1 from dimers to monomers was maintained in the presence of the scramble peptide
B2,"conversion of oGC1 multimers into monomers (non-reducing gel, Western blot)",[4],rTrx1 converted oGC1 multimers into monomers to some extent
same,conversion of oGC1 multimers into monomers in the presence of 125 µM scramble peptide,[4],the reducing effect of Trx1 was maintained with the scramble peptide as control
B3,"NO-stimulated GC1 activity (1 µM DEA-NO), purified GC1 + Trx1 1:7",[5],FIG. 3A first confirmed the increased NO-stimulated activity of GC1 by Trx1
same,"NO-stimulated GC1 activity, purified GC1 + Trx1 in the presence of peptide 1 (25 µM)",[5],Trx1-dependent increase of NO-stimulated GC1 activity was similarly blunted by the 3 peptides
same,"NO-stimulated GC1 activity, purified GC1 + Trx1 in the presence of peptide 2 (25 µM)",[5],Trx1-dependent increase of NO-stimulated GC1 activity was similarly blunted by the 3 peptides
same,"NO-stimulated GC1 activity, purified GC1 + Trx1 in the presence of peptide 3 (25 µM)",[5],Trx1-dependent increase of NO-stimulated GC1 activity was similarly blunted by the 3 peptides
same,"NO-stimulated GC1 activity, purified GC1 + Trx1 in the presence of the scramble peptide (25 µM)",[5],the scramble peptide had no effect

# Reference: US20240301386A1, “Soluble Guanylyl Cyclase (GC1) Mimetic Polypeptides and Methods of Use Thereof” (Rutgers, the State University of New Jersey, priority 2023, published 2024)
